{
  "source": "paper PMC12654638",
  "biological_target": "carotenoependymin-Purple1 (Cep-Purple1) (Haliclona sp. (purple sponge))",
  "assay": "SEC; HPLC size-exclusion chromatography (TSKgel G3000SWXL), calibrated with molecular standards; native protein estimated at 41-43 kDa against 23 kDa on SDS-PAGE",
  "data": [
    {"substance": "carotenoependymin-Purple1 (Cep-Purple1) (natural protein)", "values": [
      {"measurement": "stoichiometry N", "result": 2}
    ]}
  ]
}
